The results in this text go back to patent US5792634.

Bounds are passed on as bounds.

The test has as its target RNA polymerase II purified from rat liver (rat).

On to “RNA polymerase transcription factor SIII (Elongin), purified from rat liver”, for which the rate of RNA chain elongation, runoff transcription from the AdML promoter was greater than 5 fold.
